Results on one substance are retold here after article PMC7144943.

For one series, the system named is Blanks dsRBD2 mutant. Description: fluorescence anisotropy. To be noted: n=3; assay buffer not given (as in ref 39); protein final buffer 100 mM KAc pH 7.4, 10 mM HEPES pH 7.4, 2 mM MgAc, 5 mM DTT (protein diluted 1:3 into it, then …). In general terms: Fluorescence polarisation rises when a labelled molecule tumbles more slowly, as on binding a larger partner.
Series [1] relates to Blanks wild-type (cDNA variant). The series can be described thus: fluorescence anisotropy. To be noted: n=3; assay buffer not given (as in ref 39); protein final buffer 100 mM KAc pH 7.4, 10 mM HEPES pH 7.4, 2 mM MgAc, 5 mM DTT (protein diluted 1:3 into it, then …).

In the case of 23 nt ds siRNA (21 bp), the Kd (in general, a measure of binding affinity in units of concentration) in the series on Blanks dsRBD2 mutant is 666 nM; in series [1], 177 nM.
